Numbering of substitutions follows the chain as printed. No end group written: not given here.
How the values were obtained:
Test in all cases: AlphaScreen or HTRF
[1] = target: T1, H6-tagged Arabidopsis TPR3 N-terminal domain, TPR3(1–209) (Arabidopsis, UniProt Q84JM4 1-209)
T1 sequence (looked up): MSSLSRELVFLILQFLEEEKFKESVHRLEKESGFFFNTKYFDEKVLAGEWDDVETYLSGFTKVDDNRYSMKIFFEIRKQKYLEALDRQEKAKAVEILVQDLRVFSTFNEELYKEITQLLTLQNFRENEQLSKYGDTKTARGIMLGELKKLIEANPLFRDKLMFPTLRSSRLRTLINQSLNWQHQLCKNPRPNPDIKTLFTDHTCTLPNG

[2] = target: T2, H6-tagged OsTPR1 N-terminal domain (TPD), TPR1(1–209) (rice, UniProt Q10NY2 1-209)
T2 sequence (looked up): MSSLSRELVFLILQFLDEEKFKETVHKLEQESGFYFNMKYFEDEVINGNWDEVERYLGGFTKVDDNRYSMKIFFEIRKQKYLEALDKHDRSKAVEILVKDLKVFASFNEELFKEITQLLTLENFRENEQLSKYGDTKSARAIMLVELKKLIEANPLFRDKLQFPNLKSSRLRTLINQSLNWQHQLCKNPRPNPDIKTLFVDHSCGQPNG

[3] = target: T3, H6-tagged Arabidopsis TPR2 N-terminal domain, TPR2(1–209) (Arabidopsis, UniProt Q9LRZ0 1-209)
T3 sequence (looked up): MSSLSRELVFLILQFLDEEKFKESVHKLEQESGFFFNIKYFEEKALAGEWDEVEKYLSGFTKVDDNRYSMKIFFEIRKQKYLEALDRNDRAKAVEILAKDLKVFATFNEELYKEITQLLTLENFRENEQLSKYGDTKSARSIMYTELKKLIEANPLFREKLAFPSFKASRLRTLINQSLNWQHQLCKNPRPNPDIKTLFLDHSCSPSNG

[4] = target: T4, H6-tagged OsTPL N-terminal domain (TPD), TPL(1–209) (rice, UniProt Q0J7U6 1-209)
T4 sequence (looked up): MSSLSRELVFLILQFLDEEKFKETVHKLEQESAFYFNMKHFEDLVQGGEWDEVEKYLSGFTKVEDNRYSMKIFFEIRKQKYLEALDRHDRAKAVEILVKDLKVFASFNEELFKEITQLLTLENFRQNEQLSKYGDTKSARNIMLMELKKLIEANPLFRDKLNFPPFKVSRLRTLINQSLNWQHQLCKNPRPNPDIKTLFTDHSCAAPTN

[5] = target: T5, H6-tagged OsTPR2 N-terminal domain (TPD), TPR2(1–210) (rice, UniProt Q5NBT9 1-210)
T5 sequence (looked up): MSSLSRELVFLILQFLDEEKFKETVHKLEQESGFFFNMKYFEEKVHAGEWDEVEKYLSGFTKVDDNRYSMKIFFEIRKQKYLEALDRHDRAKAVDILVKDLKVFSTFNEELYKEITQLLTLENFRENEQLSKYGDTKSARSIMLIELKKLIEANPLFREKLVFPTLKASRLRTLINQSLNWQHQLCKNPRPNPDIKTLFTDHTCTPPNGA

[6] = target: T6, H6-tagged Arabidopsis TPR1 N-terminal domain, TPR1(1–209) (Arabidopsis, UniProt Q0WV90 1-209)
T6 sequence (looked up): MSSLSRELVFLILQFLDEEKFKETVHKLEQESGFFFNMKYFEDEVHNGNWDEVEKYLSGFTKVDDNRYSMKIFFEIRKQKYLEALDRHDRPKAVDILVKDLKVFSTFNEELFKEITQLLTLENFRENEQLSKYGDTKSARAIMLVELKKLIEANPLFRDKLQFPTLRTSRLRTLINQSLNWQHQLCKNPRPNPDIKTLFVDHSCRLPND

[7] = target: T7, H6-tagged Arabidopsis TPR4 N-terminal domain, TPR4(1–209) (Arabidopsis, UniProt Q27GK7 1-209)
T7 sequence (looked up): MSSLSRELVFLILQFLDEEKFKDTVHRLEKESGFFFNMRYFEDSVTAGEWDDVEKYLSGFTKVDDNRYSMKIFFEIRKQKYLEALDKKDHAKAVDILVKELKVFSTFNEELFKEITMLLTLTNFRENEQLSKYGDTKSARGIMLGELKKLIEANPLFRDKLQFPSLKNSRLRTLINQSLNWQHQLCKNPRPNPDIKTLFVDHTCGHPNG

[8] = target: T8, H6-tagged Arabidopsis TPL N-terminal domain, TPL(1–209) (Arabidopsis, UniProt Q94AI7 1-209)
T8 sequence (looked up): T6 sequence (looked up) with R87K, T168N, R205G, L206P, D209G

Measured: binding result

DNGLELSLGLSC (also: biotinylated, end not given here) [biotinylated NINJA EAR motif peptide (12 amino acids, wild type)]
binds: all assays above
